Test: soluble on expression in E. coli; label from the status in PepcDB or PDB records

Soluble on expression in E. coli, not soluble:
MGSDKIHHHHHHMTMPYVKNTKEILEKASKERYAIGAFNFNNMEFLQAILEAAEEEKAPVIVATSEGAIKYIGKGDIETGAKLAVEMVRTYAEKLSVPVALHLDHGRDFKVIMAAIKAGYSSVMIDASHLPFEENLRETKRIVEIAHAVGISVEAELGKLKGIEDNVVEKESVLVDPEEAKVFVKETEVDFLAPAIGTSHGAFKFKGEAQLDFERLKKVKEYTQIPLVLHGASMVPQDIVKLANEYGAELSGAKGVPEDMLKKAIELGINKINTDTDLRITFVAYLRKVLSEDKSQIDPRKIFKPVFEQVKEIVKERIRIFGSSGKA
MGSDKIHHHHHHMTMTKKDALLLAAKELFGEYGYSETTFKKISERAGVALGLLTHHYGNKEKLFLAAGLDVLDRFIVYLQDACAKGNNGYESVMNFCRAYLDFSIDKNEHFMVLVRCSPYSDMKTKTDRDIMYEKFNQVPRELEYHVRRGIEDGSLKSLPAYETTTVLTCNLVGSIRTKLLTPYAPPSLYDDVLEFISRSIKA
MGSDKIHHHHHHMTNKVVNNDKISSVGIIGCGWLGSALAYQLKNQDIAVLATRSNIDNIEQLKSQGIEAEVLSLPAEQAQLNTHPIFKQQCLVIAITPQFRQGRVDYADKVQQLVESAKVGNCVEQIILLSSSAIYNGLSGDVEENSILDMSADKVSVLNQAEQAVLSFNHPGRNESRLNALNAEVGNKKAYVLRLSGLVGPKRHPGKFLLNGHMLKSPQAIVNLIHQQDAVGLIQTLLQSANCGGIFNGVSSTKVTKKQYYQAAASALQLPTPTFEEIELSEDNAPKVVSGKKTQAELAYEFVYDDLLAWLELAV
MGSDKIHHHHHHMTQNTTLRIGSGSGWWGDRVEPAERSARLGKLDYLCFETMAEATVSAAQVRKRRDPAFGGYDTYLDDRMRAVLPHCIAHGTRIISNQGWIHPLGAARRVAELCKELGLPDVKIAAVTTTDLTSSICELDLTLLESGEHVSTLRETLISAEPYEGVGPIVEALRAGAQIVVTGRVADPSLFLAPMIHHFGWQADDVARLARGSAIGHLLECGAQVTGGYFGDPGYKDVPEPWNLAFPIAEVEADGSAVISKVAGSGGRIDLQTVKEQMFYEVHDPRRYITPDVIVDFSTAVLEQVAPDRVRISGVSGLPRTDTLKVSLGCTEGHIGEDMFFYAGPGCLEKAKLAKRILEERFAMAALRADELRIDFLGVNAVHGAASPEPACEPNEIAVRVAARTRTREEAAKVGREIDSMAVCGLASTGKRVPHQDRTREIIGVWSALVPRALIRSQVQFV
MGSDKIHHHHHHMTQPTLPPPPRTRFTVSDFNRMGGSVGFNYRLPGQEGGGTGIENLCIAEGRVEECEIRPGITLIVSDVHVYHHYESTSVMTPRFSAIVMLQGQARARLDKQDDVRLAAQSGLNALYGDTVAMTGVHPAGQRLRSVNLSVTAPEAADDEYTSEIIWKLMQSSAPRLRRWPVPHHLLLSIEHLLECDWDQPLRNMVREGVGTQLLAHALAALQHAPVTHRGLTQRDRQLLERVRERLHEAPGEDHTLDDLARLACMSPSTLRAKFHAVYHRSVFSWLRERRLEVAREQLARGWSVQQAAHFVGYRHATNFATAFRERYGVAPSQLG
MGSDKIHHHHHHMTRKRAKTHSVKKAPLFVLTSSPNPKRTTSNKSAGIWSYWTRRTAYAMSTHIIPRLQKVIDGEDQGGISKAVNWQGGGGFRYFRLAPTLIVNDKWGNQIINPDYNPEMLAEALAKLEGLPDFSWILELGSGFAFVGRQYRLEVNGDEFFIDLLFYHIRLKCYVVVELKAAAFKPEHAGQLNFYLAAVDAQVKAPDDNPTIGLLLCKTQNRLVAEYALSDIDKPIGIAEYELVRALPEPLVTNLPTVEQLESELSDWQEDGEFFGV
MGSDKIHHHHHHMTRPPDLLADVLDGIDALLVFSPSGSYYDRVDDVEGVDVVVVATENAVGAETFVELPLAFDDVREQIRFGIEGALSEGVVADGDELGCVAPFLSEEVDMVTRTRANAGTQSSVYELFASTRAEPGVIRDVFDVAIELGRKGQKGKPVGALFVVGDAGKVMTKSRPLSYNPFEKSHVHVGDPIVNVMLKEFSRLDGAFVISDSGKIVSSYRYLEPGAEGTDIPKGLGARHMAAGAITRDTNAVAIVLSESDGLVRAFRNGELVLELDPEDN
MGSDKIHHHHHHMTRQCHPLATVVDACAPLRFAPLPDLRLRSFTRSGDQGDAGQWCRADLLAAKNAFAPVYDGFVAATRPGHRLPAATHFLRAVFREPIFLVAAGLYLTGRAPLLDASHLWFPVRADRTLGTPMLTELKVAVTADDRFAGHPETVTFPGSDDVVRAAAHAMVAAFTPVIDALSAHTRVGKRTLWGWVLDTAHFYMLNPARFLGRDAQAAWALANRLADALLEAGAVTRARPRLFPFCDNHPRGTWAVRGTCCFDYKGDPEHGYCTTCPHKCDNERRNELQEWLRNPALAP
MGSDKIHHHHHHMTRRAWTLLDGGMGRELKRIGAPFRQPEWSALALFEAPEYVTQVHRAFIAAGARVITTNSYAVVPFHIGEERFARSGRALAELSGRLARGAADEAGASVQVAGSLPPALGSYRPDLFDPARSQAIHRELICGLTPHVDFWLAETQSSLAEARAVHAALDGDGKPLWLSFTLLDPDTEHAVPLLRSGESVQQAVLLALELGASALLFNCSQPESMGAALRSARQVLKQEARELALGVYANAFPPVREDAQANDTLLDIRADLGPEAYLQWAQQWVEEGADIVGGCCGIGPEHIARLDEHLQACKQGME
MGSDKIHHHHHHMTSDDLLPYGYIDAHHHVWAPDSHGDAIGYGWLRDIGAMKPFGDPTPIQRDYLMAEFLSEAPDAPRASVHVQTDGTLPDPVAETRFVQAQADATDHPVKIVGLADLGAEDLTGTLDRHAESRDFCGVRQIAARLDHRPDLTFAPQDYLADEQWVNGLKILEDRGLTFDLQIYPEQAEAALEALSATPALTVIIDHALCPYDPAKITQWQAAVALMAARDNTFIKLSGWGMYDAEWDLNGGVSVQPLVSHILERFGADRVMWGSNFPVEKLATRYETCRDVHLDMVPEDAHQDVFFNSAAKTYGLTLT
MGSDKIHHHHHHMTSFISVYLKIKYYICIYKGNLLVKSILLESSCVILIKYSAQYPNLSNSMIKMNKTISDVDFDDEQEIKLPLSNRQSIAILLGAGFSAPKGYPIGNDINKKIQNFDDSNIDFSPSGMLAISKDGHKPLFQIEGVRNIHQKYFIFCKRLINEYTKAHSNQFDYEQFYDFIKSDEAKDNRYRLLCQDLINKSDDYDNYLFNVVHIYNQMVLYLLKDKEGKSYYDGEPFKVNCADAYNEFLLYLSQQSKECIINIHTLNHDLLIESFNQTSNINGNISDGFDEYGSEYYGILEHDHRNYNCRLERYTGRYNTPIRLYKLHGSIDYVPFYRRDKNGFMKPEKYVKIKWGIGASNIIKGRKSKYGYDASPFEYHADFLTGTTSKIKRYDETLLFKKLFKKFRNNLSKANSLIIIGYGCKDKGINEMIKDNFDYKNKPSFIIDKYAGASVETFAQKINAKIIKESIERLDKTWFV
MGSDKIHHHHHHMTSVEAFRGLYYPNKIGRLCFLSLEEVMGQNGVKALLRLADLQQYIDAYPPNDLKREFPFEAISKYSVALGTMYGPRGARGLELRAGRVAFSLGLKEFGPLLGMADLALKLMPITMKLKIVLNATAQTFDRFSDQSSHVEEERGRFVYHITRCSNCITRPEPGPVFYIARGILEEATAWVSGGRRFAVEQLSCMGQGNCSSCAFAIGKDPLE
MGSDKIHHHHHHMTSVSPHKKAKALKPTSRRPAKELCSECGLCDTYYIHYVKEACAFINQQIGELEVETHTRSRHLDNPDELYFGVHQDMIAARKQQPIEGAQWTGIVSSIAIEMLNRGLVEGVVCVQNTKEDRFQPMPIIARTPEEILAARVNKPTLSPNLSVLEQIEKSGMKRLLVIGVGCQIQALRAVEKQLGLEKLYVLGTPCVDNVNRAGLQKFLETTSRSPETVVHYEFMQDFRVHFKHEDGSSETVPFFGLKTNKLKDVFAPSCMSCFDYVNSLADLVVGYMGAPFGWQWIVVRNDTGKEMLDLVQDQLDTQPVTSKGNRKEAVQQSIPAYDKGVTLPMWAAKLMGVVIEKIGPKGLEYARFSIDSHFTRNYLYVKRNHPEKLEAHVPEFAKRIVEQYKLPE
MGSDKIHHHHHHMTTDILNISEEQLVDYSKAHNEPSWMTELRKKALKLTETLEMPKPDKTKLRKWDFDSFKQHDVKGDVYQSLSQLPESVREIIDVDHSKNLVIQHNNTIAYTQVDDNASKDGVIVEGLADALMNHSDLVQKYFMKDAVTVDEHRITALHTALVNGGVFVYVPKNVVVEHPVQYVVLHDDENASFYNHVIIVTEESAEVTYVENYLSNASGEGNQLNIISEVIAGANSNITYGSVDYMDKGFTGHIIRRGITEADASINWALGLMNEGSQIIDNTTNLFGDRSTSSLKSVVIGTGEQKINLTSKIVQYGKETDGYILKHGVMKEHASSVFNGIGYIKHGGTKSIANQESRVLMLSEHARGDANPILLIDEDDVQAGHAASVGRVDPDQLYYLMSRGISQREAERLVIHGFLDPVVRELPIEDVKRQLREVIERKVSK
MGSDKIHHHHHHMTTKKFRMEDVGLSKLKVEKNPKDVKQTEWKSVLPNEVYRVARESGTETPHTGGFNDHFEKGRYVCLCCGSELFNSDAKFWAGCGWPAFSESVGQDANIVRIVDRSHGMHRTEVRCKTCDAHLGHVFNDGPKETTGERYCINSVCMAFEKKD
MGSDKIHHHHHHMTTLLRTRRFPPLNALRAFEAAARHLNFRLAADELGVTQGAVAQQVRHLEDVVAVQLFRRLPRGLALTREGLEYFSSVQRALQIISDATDALGERPTVLAVSTTPSFASKWLIPRLADFGRLHPDIEVRVIADERLASFRADGVDIAIRLSKPPFPAGLAAELLAPLDIFAVASPKLLDSGPPIRTPADLSTHALLHDAHDLWPEFIEKLGGKGRADPTKGPRFSQSLLAIDAAVAGQGIALTSEPLVERDIAEGRLRRVFDFSFPMSLGFYVVFPQANAHSEALQAMRRWLFAQYGKA
MGSDKIHHHHHHMTTNKEQYKVHQEPYYQAQGREVQLYEAAYRNRLPVMVKGPTGCGKSRFVEYMAWKLNKPLITVACNEDMTASDLVGRYLLEANGTRWLDGPLTTAARIGAICYLDEVVEARQDTTVVIHPLTDHRRTLPLDKKGELIEAHPDFQLVISYNPGYQSLMKDLKQSTKQRFAAFDFDYPDAALETTILARETGLDETTAGRLVKIGGVARNLKGHGLDEGISTRLLVYAATLMKDGVDAGDACRMALVRPITDDADIRETLDHAIDATFA
MGSDKIHHHHHHMTTQSFIATKEHRRFAEFADAVRRQHTIGICYGHAGIGKTLSAKRYANWHKAENLIEQWGPRDDADYQIYAALARARTVFYTPAVLTSPKQIHAELEHISTRVSICVDQHLEKIGKKTGPHTRTGKHVELLIIDESERLNATALELLRDRYDRDNIALILIGMPGIEKWFSRYAQLYSRVGFAHEYRPLAQEELNFVLERRWHKLGQTLDPEDFTDAQAIAAVARITRGNFRLIDRLFTQIERVMKINELSTITDDVIEAARSTLVIGIS
MGSDKIHHHHHHMTTTIQALEKHLQVRLLNRTTRKISLTPDGAVYYDRTARILADVADIESSFHDAERGPRGQLRIDVPVSIGRLILIPRLRDFHARYPDIDLVIGLNDRPVDLVGEAVDCAIRVGELKDSSLIARRIGTFQCATAASPIYLEKYGEPTSIEDLQKNHKAIHFFSSRTGRNFDWDFVVDDLIKSVSVRGRVSVNDGDAYIDLALQGFGIIQGPRYMLTNHLESGLLKEVLPQWTPAPMPISAVYLQNRHLSLKVKVFVDWVAELFAGCPLLGGTALPFDQKCEFACDKETGHEYTIRTLVEQHNIAEAYTLKT

Source: the DeepSol protein solubility set
